The text below walks through data of US20150098945A1 (Daiichi Sankyo, published 2015).

Substitutions are numbered along the chain they refer to.

Assay [1] addresses T1, rat ROBO4 (pCI-raROBO4-transfected HEK293 cells) (rat, UniProt Q80W87 38-949 at identity 0.93)).
T1 chain: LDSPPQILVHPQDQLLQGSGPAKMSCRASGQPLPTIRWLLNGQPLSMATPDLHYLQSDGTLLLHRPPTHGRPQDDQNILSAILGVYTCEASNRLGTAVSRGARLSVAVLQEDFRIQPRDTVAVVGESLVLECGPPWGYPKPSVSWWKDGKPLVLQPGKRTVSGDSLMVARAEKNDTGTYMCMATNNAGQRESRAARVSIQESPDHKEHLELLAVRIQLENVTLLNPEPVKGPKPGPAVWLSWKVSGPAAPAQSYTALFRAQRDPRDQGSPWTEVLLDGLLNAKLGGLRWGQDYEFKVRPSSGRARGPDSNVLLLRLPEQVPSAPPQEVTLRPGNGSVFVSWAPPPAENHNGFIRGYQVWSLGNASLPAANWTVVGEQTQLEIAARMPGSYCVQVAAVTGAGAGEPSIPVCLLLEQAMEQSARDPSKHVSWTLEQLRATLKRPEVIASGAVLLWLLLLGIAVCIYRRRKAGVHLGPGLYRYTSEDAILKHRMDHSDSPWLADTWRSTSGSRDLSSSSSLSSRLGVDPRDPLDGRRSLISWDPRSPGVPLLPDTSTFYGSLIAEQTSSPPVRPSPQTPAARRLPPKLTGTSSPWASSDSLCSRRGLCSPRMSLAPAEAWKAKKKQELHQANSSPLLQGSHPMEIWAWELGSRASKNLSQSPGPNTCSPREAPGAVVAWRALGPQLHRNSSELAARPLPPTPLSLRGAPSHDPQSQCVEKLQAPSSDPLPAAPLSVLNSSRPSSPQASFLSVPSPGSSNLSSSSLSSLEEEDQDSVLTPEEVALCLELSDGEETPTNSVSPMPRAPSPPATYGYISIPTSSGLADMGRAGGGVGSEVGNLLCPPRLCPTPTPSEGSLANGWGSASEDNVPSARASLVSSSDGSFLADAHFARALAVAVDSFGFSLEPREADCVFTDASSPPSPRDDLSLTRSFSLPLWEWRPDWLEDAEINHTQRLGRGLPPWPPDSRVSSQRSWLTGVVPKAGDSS
Nature of the assay: flow cytometry on transfected HEK293 cells. (In general: Flow cytometry measures light scatter and fluorescence of single cells or particles in a stream.)

Assay [2] concerns the target T2, N-terminal FLAG-tagged cynomolgus monkey ROBO4, cynoROBO4-1 (pCI-FLAG-cynoROBO4-1) (cynomolgus monkey, UniProt Q8WZ75 28-1007 (human entry)).
T2 chain: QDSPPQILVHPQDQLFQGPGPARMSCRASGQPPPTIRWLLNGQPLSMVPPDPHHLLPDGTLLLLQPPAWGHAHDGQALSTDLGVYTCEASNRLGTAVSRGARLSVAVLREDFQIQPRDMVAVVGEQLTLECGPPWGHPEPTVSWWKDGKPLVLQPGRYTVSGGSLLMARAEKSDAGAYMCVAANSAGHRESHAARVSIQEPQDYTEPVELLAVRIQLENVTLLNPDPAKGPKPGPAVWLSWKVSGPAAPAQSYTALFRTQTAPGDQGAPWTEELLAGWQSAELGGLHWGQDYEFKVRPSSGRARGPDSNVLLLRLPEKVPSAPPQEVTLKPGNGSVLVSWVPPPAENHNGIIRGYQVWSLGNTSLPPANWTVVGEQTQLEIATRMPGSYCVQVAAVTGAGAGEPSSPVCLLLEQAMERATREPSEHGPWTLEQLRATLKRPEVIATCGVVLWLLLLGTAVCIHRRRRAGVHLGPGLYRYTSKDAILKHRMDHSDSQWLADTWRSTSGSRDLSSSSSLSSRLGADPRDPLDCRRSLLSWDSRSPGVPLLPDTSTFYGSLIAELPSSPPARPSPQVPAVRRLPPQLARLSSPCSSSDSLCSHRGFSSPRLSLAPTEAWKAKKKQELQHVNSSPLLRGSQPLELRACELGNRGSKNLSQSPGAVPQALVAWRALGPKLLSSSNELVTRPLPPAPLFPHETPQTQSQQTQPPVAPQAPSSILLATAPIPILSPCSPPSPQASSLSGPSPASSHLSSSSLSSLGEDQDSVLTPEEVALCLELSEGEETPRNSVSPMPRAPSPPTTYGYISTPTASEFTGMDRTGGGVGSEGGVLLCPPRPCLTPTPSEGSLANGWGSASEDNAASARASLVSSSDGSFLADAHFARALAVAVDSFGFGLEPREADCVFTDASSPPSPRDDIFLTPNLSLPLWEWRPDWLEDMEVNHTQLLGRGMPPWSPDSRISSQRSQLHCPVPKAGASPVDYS
Description: flow cytometry on transfected HEK293 cells.

Assay [3] addresses T2, N-terminal FLAG-tagged cynomolgus …. Description: flow cytometry (FC500), HEK293 cells transfected with pCI-FLAG-cynoROBO4-1, antibody at 10 µg/mL, FITC goat anti-human IgG Fc; control histogram IgG (human IgG).

B1: humanized MAb1 antibody H-1140 (antibody, human IgG2, kappa, V domains shown)
VH: EVQLVESGGGLVQPGGSLRLSCAASGFTFSTYAMSWVRQAPGKGLEWVATISQGGTYTYYPDSVKGRFTISRDNAKNTLYLQMNSLRAEDTAVYYCARLIYYDYLDYWGQGTLVTVSS
VL: DIVMTQSPLSLPVTLGEPASISCRSSQSLENSNGNTYLNWYLQKPGQSPQLLIYRVSNRFSGVPDRFSGSGSGTDFTLKISRVEAEDVGVYYCLQVTHVPWTFGPGTKVDIKR
notes: Human IgG2 / kappa constant regions; also called hMAb1-H2-type heavy chain + hMAb1-L1-type light chain
With B1, the results for the binding result in assay [1] and in assay [2] were “no binding (tested: 10 µg/mL (method of 4)-3-2))” and “binds”, respectively.

B2: humanized MAb1 antibody H-2140 (antibody, human IgG2, kappa, V domains shown)
VH: B1 VH with G44R
VL: B1 VL
notes: Human IgG2 / kappa constant regions; also called hMAb1-H4-type heavy chain + hMAb1-L1-type light chain
On to B2, for which the binding result in assay [3] is reported as “binds”.
